The target in the assay is GLP-1 receptor (GLP-1 cyclase assay of Example 11) (UniProt P32301). Description: cell-based or functional assay.
GLP-1 receptor (GLP-1 cyclase assay of Example 11), sequence (P32301 22-463 limits assumed): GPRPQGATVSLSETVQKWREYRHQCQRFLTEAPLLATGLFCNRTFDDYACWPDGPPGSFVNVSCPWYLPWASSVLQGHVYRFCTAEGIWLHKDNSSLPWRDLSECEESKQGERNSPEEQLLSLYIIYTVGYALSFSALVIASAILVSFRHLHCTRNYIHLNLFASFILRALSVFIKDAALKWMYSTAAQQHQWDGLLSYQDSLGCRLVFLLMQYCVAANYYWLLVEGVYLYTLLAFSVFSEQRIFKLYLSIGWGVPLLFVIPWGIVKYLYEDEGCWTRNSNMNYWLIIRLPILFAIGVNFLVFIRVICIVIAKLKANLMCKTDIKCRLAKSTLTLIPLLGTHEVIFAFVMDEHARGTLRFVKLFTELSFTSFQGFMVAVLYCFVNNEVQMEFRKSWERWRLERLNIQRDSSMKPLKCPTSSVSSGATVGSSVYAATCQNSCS

“[^14Leu,^28Gln]Exendin-4-(1-32)-fGLP-1-(33-37)-miniPEG-(S)-2,6-diamino-1-(pyrrolidin-2-cyano-1-yl)hexan-1-amide (peptide)” showed a GLP Cyclase EC50 of 0.017 nM.

(Values after patent US20100286365A1.)
